Measured values: US20110239311

Experiments:
[1] = test system: GST-NR2F6 fusion protein, S83A mutant, full-length
[2] = test system: GST-NR2F6 fusion protein, S89A mutant, full-length
[3] = test system: GST-NR2F6 fusion protein, wild-type, full-length (purified recombinant)
GST-NR2F6 fusion protein, wild-type, full-length (purified recombinant), sequence (chain, as listed by the source): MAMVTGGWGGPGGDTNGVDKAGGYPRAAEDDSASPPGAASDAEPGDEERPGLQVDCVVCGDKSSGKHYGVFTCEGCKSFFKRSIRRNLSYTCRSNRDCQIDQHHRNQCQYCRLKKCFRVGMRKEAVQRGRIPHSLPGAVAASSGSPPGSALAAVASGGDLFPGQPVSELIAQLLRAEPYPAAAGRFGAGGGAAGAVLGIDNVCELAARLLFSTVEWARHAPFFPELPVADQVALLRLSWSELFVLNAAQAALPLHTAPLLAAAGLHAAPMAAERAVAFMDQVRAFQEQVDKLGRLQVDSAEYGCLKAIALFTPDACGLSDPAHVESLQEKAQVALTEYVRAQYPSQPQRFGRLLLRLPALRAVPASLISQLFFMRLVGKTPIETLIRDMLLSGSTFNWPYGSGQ

GST-NR2F6 fusion protein, S89A mutant, full-length, sequence (chain, as listed by the source S89A): as the sequence (chain, as listed by the source) above, with S89A counted along it
GST-NR2F6 fusion protein, S83A mutant, full-length, sequence (chain, as listed by the source S83A): as the sequence (chain, as listed by the source) above, with S83A counted along it
recombinant PKCtheta, sequence (Q04759 whole entry): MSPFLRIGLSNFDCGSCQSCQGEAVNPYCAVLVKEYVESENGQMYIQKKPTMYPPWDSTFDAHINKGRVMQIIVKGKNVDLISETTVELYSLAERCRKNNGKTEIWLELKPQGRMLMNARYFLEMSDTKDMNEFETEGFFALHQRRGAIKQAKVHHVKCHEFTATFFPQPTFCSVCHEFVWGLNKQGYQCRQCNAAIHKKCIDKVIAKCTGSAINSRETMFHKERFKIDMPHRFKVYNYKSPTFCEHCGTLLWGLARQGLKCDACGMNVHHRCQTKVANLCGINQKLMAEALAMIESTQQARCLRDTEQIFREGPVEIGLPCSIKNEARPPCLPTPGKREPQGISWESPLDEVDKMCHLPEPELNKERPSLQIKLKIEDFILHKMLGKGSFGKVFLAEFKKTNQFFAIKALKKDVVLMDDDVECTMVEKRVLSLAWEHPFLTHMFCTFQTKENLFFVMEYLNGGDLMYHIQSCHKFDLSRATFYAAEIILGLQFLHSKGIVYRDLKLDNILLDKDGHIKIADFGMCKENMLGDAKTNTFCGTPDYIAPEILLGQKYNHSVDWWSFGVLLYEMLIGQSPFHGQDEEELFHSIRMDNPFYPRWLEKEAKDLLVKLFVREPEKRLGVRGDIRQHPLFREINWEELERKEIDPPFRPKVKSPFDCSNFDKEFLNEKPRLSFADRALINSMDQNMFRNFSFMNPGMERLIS

Substance | in vitro protein kinase assay (32P incorporation into GST-NR2F6) [1] | in vitro protein kinase assay (32P incorporation into GST-NR2F6) [2] | in vitro protein kinase assay (32P incorporation into GST-NR2F6) [3]
recombinant PKCtheta | This phosphorylation was lost after the predicted phosphorylation site at Ser-83 (but not at Ser-89) was mutated in the full-length NR2F6 protein | This phosphorylation was lost after the predicted phosphorylation site at Ser-83 (but not at Ser-89) was mutated in the full-length NR2F6 protein | PKCalpha, delta and theta (but not PKCzeta or PKA) were able to phosphorylate recombinant NR2F6 in vitro
recombinant PKCdelta | This phosphorylation was lost after the predicted phosphorylation site at Ser-83 (but not at Ser-89) was mutated in the full-length NR2F6 protein | This phosphorylation was lost after the predicted phosphorylation site at Ser-83 (but not at Ser-89) was mutated in the full-length NR2F6 protein | PKCalpha, delta and theta (but not PKCzeta or PKA) were able to phosphorylate recombinant NR2F6 in vitro
recombinant PKCalpha | This phosphorylation was lost after the predicted phosphorylation site at Ser-83 (but not at Ser-89) was mutated in the full-length NR2F6 protein | This phosphorylation was lost after the predicted phosphorylation site at Ser-83 (but not at Ser-89) was mutated in the full-length NR2F6 protein | PKCalpha, delta and theta (but not PKCzeta or PKA) were able to phosphorylate recombinant NR2F6 in vitro
Protein kinase A (PKA) | – | – | (but not PKCzeta or PKA) were able to phosphorylate recombinant NR2F6 in vitro
